In publication PMC5009744 one finds Kd data, which are given here for six substances.

Test [1] concerns the target eIF5B Domain-4 (eIF5B-D4) (human). As to the kind of experiment: fluorescence polarisation.
Test [2] concerns the target eIF5B-D34 (eIF5B domains D3 and D4) (human). As to the kind of experiment: fluorescence polarisation.
Test [3] deals with eIF1AΔC (eIF1A missing the entire 26-residue C-terminal tail) (human). As to the kind of experiment: NMR titration.
In test [4] the target is fluorescein-labeled synthetic eIF1A-CT7 peptide (human). As to the kind of experiment: fluorescence polarisation.

Chain of eIF5B Domain-4 (eIF5B-D4) (human) (O60841 whole entry, the tested form may be a part): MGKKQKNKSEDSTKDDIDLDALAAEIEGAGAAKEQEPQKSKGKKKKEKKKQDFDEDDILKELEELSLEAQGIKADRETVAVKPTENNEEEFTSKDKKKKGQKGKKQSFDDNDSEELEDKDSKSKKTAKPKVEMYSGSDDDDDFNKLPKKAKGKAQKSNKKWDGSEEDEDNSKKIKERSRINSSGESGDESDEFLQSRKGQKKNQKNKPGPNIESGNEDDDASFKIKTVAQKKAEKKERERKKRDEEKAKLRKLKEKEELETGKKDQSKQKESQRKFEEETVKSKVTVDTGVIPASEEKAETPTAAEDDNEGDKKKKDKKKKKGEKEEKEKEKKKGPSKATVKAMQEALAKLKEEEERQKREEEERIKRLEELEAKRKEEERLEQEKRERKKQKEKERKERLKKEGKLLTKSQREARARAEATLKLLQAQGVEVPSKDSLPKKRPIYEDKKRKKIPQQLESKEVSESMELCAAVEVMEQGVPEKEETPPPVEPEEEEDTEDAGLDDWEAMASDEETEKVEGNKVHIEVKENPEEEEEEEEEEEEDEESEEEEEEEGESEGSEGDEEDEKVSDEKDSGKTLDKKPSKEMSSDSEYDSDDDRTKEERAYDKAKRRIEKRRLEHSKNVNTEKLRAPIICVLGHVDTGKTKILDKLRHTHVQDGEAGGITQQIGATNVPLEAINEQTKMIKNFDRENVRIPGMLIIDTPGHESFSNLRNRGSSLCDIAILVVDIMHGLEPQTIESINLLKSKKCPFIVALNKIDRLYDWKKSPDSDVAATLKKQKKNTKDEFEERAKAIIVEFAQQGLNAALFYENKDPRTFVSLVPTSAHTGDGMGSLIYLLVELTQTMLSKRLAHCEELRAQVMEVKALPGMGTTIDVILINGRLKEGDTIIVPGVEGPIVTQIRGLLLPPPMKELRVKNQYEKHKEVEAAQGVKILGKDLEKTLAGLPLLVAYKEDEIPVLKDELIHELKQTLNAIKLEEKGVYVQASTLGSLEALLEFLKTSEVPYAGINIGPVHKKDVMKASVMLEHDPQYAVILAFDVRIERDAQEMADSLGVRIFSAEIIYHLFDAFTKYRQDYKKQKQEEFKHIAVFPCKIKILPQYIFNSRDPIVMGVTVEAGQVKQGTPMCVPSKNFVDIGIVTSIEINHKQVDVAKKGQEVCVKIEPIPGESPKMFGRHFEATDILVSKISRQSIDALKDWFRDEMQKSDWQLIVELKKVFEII
Chain of eIF5B-D34 (eIF5B domains D3 and D4) (human) (O60841 whole entry, the tested form may be a part): as above

On to “eIF1A C-terminal tail (eIF1A-CTT), 26 residues (peptide)”, for which the Kd turned out to be 12 µM in test [1] and 18 µM in test [2]. Turning to “eIF1A-CT16 (the 16 C-terminal residues in eIF1A) (peptide)”, the Kd was determined as 12 µM in test [1] and 23 µM in test [2].

As for “eIF5B Domain-3 (eIF5B-D3) (domain or fragment)”, in test [3], the Kd is less than 1000 µM. As to “eIF5B Domain-4 (eIF5B-D4) (domain or fragment)”, the Kd in test [4] is 12 µM. The same measure, in the same setting: under “eIF5B-D34 (eIF5B domains D3 and D4) (domain or fragment)” stands 27 µM. Regarding “eukaryotic translation initiation factor 1A (eIF1A), full-length (from UniProt P47813 1-144) (natural protein)”, the values for the Kd in test [1] and in test [2] were 39 µM and 41 µM, respectively.
